Data: paper PMC11417369, “DNA sequence and chromatin differentiate sequence-specific transcription factor binding in the human malaria parasite Plasmodium falciparum”

T1: SIP2 D1 (Plasmodium falciparum, UniProt C6KSN9 177-235)
T1 sequence: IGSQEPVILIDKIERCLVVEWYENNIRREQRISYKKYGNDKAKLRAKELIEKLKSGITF


Biological target: T1, SIP2 D1
Assay: gcPBM; about 25 ug protein; PBS, 1% milk, 0.2 mg/ml BSA, salmon testes DNA, 0.03% Triton X-100
Details: tags: N-terminal GST (pGEX-4T-1), kept; label: surface-attached array probe

Binder	binding signal
GTGCAC_negctrl_site320 (dsDNA) DNA 1: TTTTCTAAAATATTCATAATAAATCAAAAAAAAAAA DNA 2: TTTTTTTTTTTGATTTATTATGAATATTTTAGAAAA	6.79 ln median PBM intensity, better of two orientations
GTGCAC_negctrl_site363 (dsDNA) DNA 1: ATTAGAGAATCGTAACCCAAATGAACATACTTAAAT DNA 2: ATTTAAGTATGTTCATTTGGGTTACGATTCTCTAAT	6.72 ln median PBM intensity, better of two orientations
GTGCAC_negctrl_site444 (dsDNA) DNA 1: TTTTTCACATCTATAAATCATCTAATCAATATTTTT DNA 2: AAAAATATTGATTAGATGATTTATAGATGTGAAAAA	6.76 ln median PBM intensity, better of two orientations
GTGCAC_negctrl_site581 (dsDNA) DNA 1: AAAAAAAAATATATATAAAATTAAAAAATGTAATAT DNA 2: ATATTACATTTTTTAATTTTATATATATTTTTTTTT	6.85 ln median PBM intensity, better of two orientations
GTGCAC_negctrl_site60 (dsDNA) DNA 1: AACACAATAAAAATTAAAAATGTTAAGTAAATATAA DNA 2: TTATATTTACTTAACATTTTTAATTTTTATTGTGTT	6.71 ln median PBM intensity, better of two orientations
GTGCAC_negctrl_site537 (dsDNA) DNA 1: TGGTAACAGCATAGAAAATGGACAAACGAAATATAA DNA 2: TTATATTTCGTTTGTCCATTTTCTATGCTGTTACCA	6.79 ln median PBM intensity, better of two orientations
GTGCAC_negctrl_site585 (dsDNA) DNA 1: TTTTGATAGAAGTGTTCTAGGAATTCAACTGTAATA DNA 2: TATTACAGTTGAATTCCTAGAACACTTCTATCAAAA	6.81 ln median PBM intensity, better of two orientations
GTGCAC_negctrl_site248 (dsDNA) DNA 1: ACTACGTGTCAAAAATATTAATTACAAATGAATAAA DNA 2: TTTATTCATTTGTAATTAATATTTTTGACACGTAGT	6.92 ln median PBM intensity, better of two orientations
GTGCAC_negctrl_site383 (dsDNA) DNA 1: TTTTGTTTTGTTTTGTTTTGTTTTGTTTTATTTTAT DNA 2: ATAAAATAAAACAAAACAAAACAAAACAAAACAAAA	6.74 ln median PBM intensity, better of two orientations
GTGCAC_negctrl_site477 (dsDNA) DNA 1: AAAAAAAATTTTCTTCTGTTGTATTTTTTATACGTT DNA 2: AACGTATAAAAAATACAACAGAAGAAAATTTTTTTT	6.77 ln median PBM intensity, better of two orientations
GTGCAC_negctrl_site392 (dsDNA) DNA 1: TTTATTATTATATTATTTTAATTTTTCTTTAGTACA DNA 2: TGTACTAAAGAAAAATTAAAATAATATAATAATAAA	6.89 ln median PBM intensity, better of two orientations
GTGCAC_negctrl_site187 (dsDNA) DNA 1: AGGAAACAAGAAATGAAGAATCATGTAGAAGGCCCA DNA 2: TGGGCCTTCTACATGATTCTTCATTTCTTGTTTCCT	6.71 ln median PBM intensity, better of two orientations
GTGCAC_negctrl_site559 (dsDNA) DNA 1: TTTTTTATTGTGAAACTGATATTATATTTTTTATAA DNA 2: TTATAAAAAATATAATATCAGTTTCACAATAAAAAA	6.71 ln median PBM intensity, better of two orientations
GTGCAC_negctrl_site708 (dsDNA) DNA 1: TTCTATTCAAATGCAAAATTATTAAATAAAAAATAA DNA 2: TTATTTTTTATTTAATAATTTTGCATTTGAATAGAA	6.9 ln median PBM intensity, better of two orientations
GTGCAC_negctrl_site96 (dsDNA) DNA 1: ATTTTTTTATAAAATTTTTATATAATTTATTATAAA DNA 2: TTTATAATAAATTATATAAAAATTTTATAAAAAAAT	6.82 ln median PBM intensity, better of two orientations
GTGCAC_negctrl_site389 (dsDNA) DNA 1: TATTATAAATTAATTTTAAACTTTATTATTATGATA DNA 2: TATCATAATAATAAAGTTTAAAATTAATTTATAATA	6.7 ln median PBM intensity, better of two orientations
GTGCAC_negctrl_site95 (dsDNA) DNA 1: GCAGTCAAAAAGGAAAATATAAAAAAAGTATATGTG DNA 2: CACATATACTTTTTTTATATTTTCCTTTTTGACTGC	6.87 ln median PBM intensity, better of two orientations
GTGCAC_negctrl_site445 (dsDNA) DNA 1: TATGGTGTAATTTAGTGTATTATATTATTTTGGTTG DNA 2: CAACCAAAATAATATAATACACTAAATTACACCATA	6.86 ln median PBM intensity, better of two orientations
GTGCAC_negctrl_site184 (dsDNA) DNA 1: TATTCTATATTTCTATTTAGAAAACATCCCAGTGTG DNA 2: CACACTGGGATGTTTTCTAAATAGAAATATAGAATA	6.86 ln median PBM intensity, better of two orientations
GTGCAC_negctrl_site11 (dsDNA) DNA 1: TCTTATAACAAAAAAAAATAAAAAATAAAACTATAT DNA 2: ATATAGTTTTATTTTTTATTTTTTTTTGTTATAAGA	6.87 ln median PBM intensity, better of two orientations
GTGCAC_negctrl_site324 (dsDNA) DNA 1: ATATGTAAAACTTCAAAAAAATATATTTTATGACGA DNA 2: TCGTCATAAAATATATTTTTTTGAAGTTTTACATAT	6.82 ln median PBM intensity, better of two orientations
GTGCAC_negctrl_site299 (dsDNA) DNA 1: AGAGAAAGAAGGGAGAAAAAATAAAATAAAATAAAA DNA 2: TTTTATTTTATTTTATTTTTTCTCCCTTCTTTCTCT	6.83 ln median PBM intensity, better of two orientations

Binder	binding signal
GTGCAC_negctrl_site313 (dsDNA) DNA 1: GATATAATTATATTATGGTGTTTTTGATAGATATTT DNA 2: AAATATCTATCAAAAACACCATAATATAATTATATC	6.92 ln median PBM intensity, better of two orientations
GTGCAC_negctrl_site693 (dsDNA) DNA 1: TGGACCAAACGACAAAAAAAAAGCAGAAAACAAAAA DNA 2: TTTTTGTTTTCTGCTTTTTTTTTGTCGTTTGGTCCA	6.81 ln median PBM intensity, better of two orientations
GTGCAC_negctrl_site130 (dsDNA) DNA 1: TTGTATTAATAATTTTTTATATTATAGTTTATAATA DNA 2: TATTATAAACTATAATATAAAAAATTATTAATACAA	6.82 ln median PBM intensity, better of two orientations
GTGCAC_negctrl_site265 (dsDNA) DNA 1: TATTTTTTTTCTTTATTTATAACGCTCAATATATTC DNA 2: GAATATATTGAGCGTTATAAATAAAGAAAAAAAATA	6.85 ln median PBM intensity, better of two orientations
GTGCAC_negctrl_site69 (dsDNA) DNA 1: AACAGATAATATAAAAAAAAAAAAAAAAATAATTAA DNA 2: TTAATTATTTTTTTTTTTTTTTTTATATTATCTGTT	6.71 ln median PBM intensity, better of two orientations
GTGCAC_negctrl_site404 (dsDNA) DNA 1: AAAAAAAAAAAGAAGGAAACATTTGACCAAAAATAT DNA 2: ATATTTTTGGTCAAATGTTTCCTTCTTTTTTTTTTT	6.91 ln median PBM intensity, better of two orientations
GTGCAC_negctrl_site288 (dsDNA) DNA 1: TATTATTCATAATTTATCTTTTAAATTAAATCACAA DNA 2: TTGTGATTTAATTTAAAAGATAAATTATGAATAATA	6.81 ln median PBM intensity, better of two orientations
GTGCAC_negctrl_site51 (dsDNA) DNA 1: ATAAAAAATTTAAGTATTTTTTACAAACCTATAAAT DNA 2: ATTTATAGGTTTGTAAAAAATACTTAAATTTTTTAT	6.78 ln median PBM intensity, better of two orientations
GTGCAC_negctrl_site686 (dsDNA) DNA 1: TCTTATATGATATTTATTTATTTATTTATTTATTCA DNA 2: TGAATAAATAAATAAATAAATAAATATCATATAAGA	6.77 ln median PBM intensity, better of two orientations
GTGCAC_negctrl_site315 (dsDNA) DNA 1: ATATACTATTAACCACATATGTGTGTTAATTTATAT DNA 2: ATATAAATTAACACACATATGTGGTTAATAGTATAT	6.87 ln median PBM intensity, better of two orientations
GTGCAC_negctrl_site233 (dsDNA) DNA 1: TAAACCTTAAAATATTTCTCATGTTTAACTTATATT DNA 2: AATATAAGTTAAACATGAGAAATATTTTAAGGTTTA	6.73 ln median PBM intensity, better of two orientations
GTGCAC_negctrl_site250 (dsDNA) DNA 1: TTTTTTTTTTTATATACTGGAAATATATTTAATTTA DNA 2: TAAATTAAATATATTTCCAGTATATAAAAAAAAAAA	6.78 ln median PBM intensity, better of two orientations
GTGCAC_negctrl_site46 (dsDNA) DNA 1: TTGTAGGAATTTATTTTGACTGATAATTAATACGTT DNA 2: AACGTATTAATTATCAGTCAAAATAAATTCCTACAA	6.8 ln median PBM intensity, better of two orientations
GTGCAC_negctrl_site133 (dsDNA) DNA 1: TCTTTTACAAAAGCTATAACATTCACCACATTATAA DNA 2: TTATAATGTGGTGAATGTTATAGCTTTTGTAAAAGA	6.79 ln median PBM intensity, better of two orientations
GTGCAC_negctrl_site547 (dsDNA) DNA 1: TTTTACAATAATAAGTAGATCTAAATAAAGATTTAA DNA 2: TTAAATCTTTATTTAGATCTACTTATTATTGTAAAA	6.73 ln median PBM intensity, better of two orientations
GTGCAC_negctrl_site618 (dsDNA) DNA 1: AAAAAAATTACATATCCATTTTAACATAATAAATAG DNA 2: CTATTTATTATGTTAAAATGGATATGTAATTTTTTT	6.84 ln median PBM intensity, better of two orientations
GTGCAC_negctrl_site515 (dsDNA) DNA 1: GATATGATGAGATTGATATTCATAAGAGGATTAATG DNA 2: CATTAATCCTCTTATGAATATCAATCTCATCATATC	6.75 ln median PBM intensity, better of two orientations
GTGCAC_negctrl_site359 (dsDNA) DNA 1: ATATAAAAAAGGGAGGTAAATGAATGTGAAACCCAA DNA 2: TTGGGTTTCACATTCATTTACCTCCCTTTTTTATAT	6.92 ln median PBM intensity, better of two orientations
GTGCAC_negctrl_site12 (dsDNA) DNA 1: AATAAAAAAATAAAAAAAAAAAAAAATAAAAAAAAA DNA 2: TTTTTTTTTATTTTTTTTTTTTTTTATTTTTTTATT	6.76 ln median PBM intensity, better of two orientations
GTGCAC_negctrl_site169 (dsDNA) DNA 1: ATAAGAAGGAACATAAATATATCATAAAAAAAAAAA DNA 2: TTTTTTTTTTTATGATATATTTATGTTCCTTCTTAT	6.73 ln median PBM intensity, better of two orientations
GTGCAC_negctrl_site149 (dsDNA) DNA 1: GCAAAATATTTAAAATAATATATGTGTATATTTTTA DNA 2: TAAAAATATACACATATATTATTTTAAATATTTTGC	6.73 ln median PBM intensity, better of two orientations
GTGCAC_negctrl_site407 (dsDNA) DNA 1: AATGGAAAAAAAAAAATAAATACAAATAAATACAAA DNA 2: TTTGTATTTATTTGTATTTATTTTTTTTTTTCCATT	6.81 ln median PBM intensity, better of two orientations
